The test has as its target T1, GST-Cdk5.GST-Nck5a complex (Homo sapiens (Human), UniProt Q00535 1-292; Q15078 99-307).
T1 construct: also called Cdk5/Nck5a complex; Cdk5.Nck5a complex
In words: steady state kinase kinetics with histone H1 peptide as substrate, Dixon plot; noncompetitive with respect to the substrate. As for the experimental part: Peptide Inhibition of Cdk5 and Cdk2 Kinase Activity—Cdk5 kinase activity was assayed essentially as described previously, except that for each Cdk5 kinase reaction 1 µg of GST-Cdk5 was reconstituted with 2 µg of GST-Nck5a, and 1 µg of GST-Cdk2 was mixed with 3 µg of cyclin A-H6 in Cdk2 assays. The reconstituted complexes were added, in duplicate, to an assay mixture containing 30 mM MOPS, pH 7.4, 10 mM MgCl_2, 40 µM of the histone H1 peptide, 50 µM [γ-^32P]ATP, and various concentrations of various peptides at 30° C. for 30 min before measuring the Cdk5 and Cdk2 kinase activities.
Steady State Kinetic Experiments—All assay conditions were the same as in the inhibition assay described above, except that the reaction time was kept at 15 min so that the product formed was less than 5% of the total substrate concentration used. To determine suitable concentrations of the substrate and the inhibitor for the steady state kinetic experiments, the K_m value of GST-Cdk5.GST-Nck5a complex and a concentration-dependent inhibition profile of the enzyme by the α_N peptide were determined. […]
Kinetic Analysis of Cdk5 Inhibition by the α_N Peptide—We also analyzed the kinetic properties of the α_N peptide with respect to the kinase substrate, the histone H1 peptide.

B1: synthetic 28-residue Nck5a peptide corresponding to Ala146 to Asp173 of Nck5a (peptide)
peptide: ASTSELLRCLGEFLCRRCYRLKHLSPTD
notes: Chemically synthesised (Fmoc), purity above 95%; Gln145 of the recombinant 29-residue fragment was left out; also called αN peptide
In the case of B1, the Ki is approximately 25 µM.

The record behind these values is US6693166 (HONG KONG UNIVERSITY OF SCIENCE AND TECHNOLOGY, dated 2004).
